From patent publication US20220308072A1

Legend:
[1] = biological target: Recombinant, his tagged full length human frataxin protein (Abcam ab95502) (human) (UniProt Q16595); test: Simoa sandwich 3-step; capture Ab-2; frataxin 100 pg/mL
[2] = biological target: Recombinant, his tagged full length human frataxin protein (Abcam ab95502) (human) (UniProt Q16595); test: Simoa sandwich 3-step; capture Ab-1; frataxin 1000 pg/mL
[3] = biological target: Recombinant, his tagged full length human frataxin protein (Abcam ab95502) (human) (UniProt Q16595); test: Simoa sandwich 3-step; capture Ab-2
[4] = biological target: Recombinant, his tagged full length human frataxin protein (Abcam ab95502) (human) (UniProt Q16595); test: Simoa sandwich 3-step; capture Ab-5; frataxin 100 pg/mL
[5] = biological target: Recombinant, his tagged full length human frataxin protein (Abcam ab95502) (human) (UniProt Q16595); test: Simoa sandwich 3-step; capture Ab-3; frataxin 100 pg/mL
[6] = biological target: Recombinant, his tagged full length human frataxin protein (Abcam ab95502) (human) (UniProt Q16595); test: Simoa sandwich 3-step; capture Ab-3; frataxin 1000 pg/mL
[7] = biological target: Recombinant, his tagged full length human frataxin protein (Abcam ab95502) (human) (UniProt Q16595); test: Simoa sandwich 3-step; capture Ab-5; frataxin 1000 pg/mL
[8] = biological target: Recombinant, his tagged full length human frataxin protein (Abcam ab95502) (human) (UniProt Q16595); test: Simoa sandwich 3-step; capture Ab-4; frataxin 1000 pg/mL
[9] = biological target: Recombinant, his tagged full length human frataxin protein (Abcam ab95502) (human) (UniProt Q16595); test: Simoa sandwich 3-step; capture Ab-1
[10] = biological target: Recombinant, his tagged full length human frataxin protein (Abcam ab95502) (human) (UniProt Q16595); test: Simoa sandwich 3-step; capture Ab-4
[11] = biological target: Recombinant, his tagged full length human frataxin protein (Abcam ab95502) (human) (UniProt Q16595); test: Simoa sandwich 3-step; capture Ab-3
[12] = biological target: Recombinant, his tagged full length human frataxin protein (Abcam ab95502) (human) (UniProt Q16595); test: Simoa sandwich 3-step; capture Ab-4; frataxin 100 pg/mL
[13] = biological target: Recombinant, his tagged full length human frataxin protein (Abcam ab95502) (human) (UniProt Q16595); test: Simoa sandwich 3-step; capture Ab-1; frataxin 100 pg/mL
[14] = biological target: Recombinant, his tagged full length human frataxin protein (Abcam ab95502) (human) (UniProt Q16595); test: Simoa sandwich 3-step; capture Ab-2; frataxin 1000 pg/mL
[15] = biological target: Recombinant, his tagged full length human frataxin protein (Abcam ab95502) (human) (UniProt Q16595); test: Simoa sandwich 3-step; capture Ab-5
[16] = biological target: Recombinant, his tagged full length human frataxin protein (Abcam ab95502) (human) (UniProt Q16595); test: Simoa sandwich 3-step; capture Ab-1; frataxin 10000 pg/mL
[17] = biological target: Recombinant, his tagged full length human frataxin protein (Abcam ab95502) (human) (UniProt Q16595); test: Simoa sandwich 3-step; capture Ab-2; frataxin 10000 pg/mL
[18] = biological target: Recombinant, his tagged full length human frataxin protein (Abcam ab95502) (human) (UniProt Q16595); test: Simoa sandwich 3-step; capture Ab-5; frataxin 10000 pg/mL
[19] = biological target: Recombinant, his tagged full length human frataxin protein (Abcam ab95502) (human) (UniProt Q16595); test: Simoa sandwich 3-step; capture Ab-3; frataxin 10000 pg/mL
[20] = biological target: Recombinant, his tagged full length human frataxin protein (Abcam ab95502) (human) (UniProt Q16595); test: Simoa sandwich 3-step; capture Ab-1; frataxin 100 pg/mL; remark: listed apart in the source
[21] = biological target: Recombinant, his tagged full length human frataxin protein (Abcam ab95502) (human) (UniProt Q16595); test: Simoa sandwich 2-step; capture Ab-1
[22] = biological target: Recombinant, his tagged full length human frataxin protein (Abcam ab95502) (human) (UniProt Q16595); test: Simoa sandwich 2-step; capture Ab-2
[23] = biological target: Recombinant, his tagged full length human frataxin protein (Abcam ab95502) (human) (UniProt Q16595); test: Simoa sandwich 2-step; capture Ab-1; frataxin 10000 pg/mL
[24] = biological target: Recombinant, his tagged full length human frataxin protein (Abcam ab95502) (human) (UniProt Q16595); test: Simoa sandwich 2-step; capture Ab-1; frataxin 1000 pg/mL
[25] = biological target: Recombinant, his tagged full length human frataxin protein (Abcam ab95502) (human) (UniProt Q16595); test: Simoa sandwich 2-step; capture Ab-2; frataxin 1000 pg/mL
[26] = biological target: Recombinant, his tagged full length human frataxin protein (Abcam ab95502) (human) (UniProt Q16595); test: Simoa sandwich 3-step; capture Ab-2; frataxin 100 pg/mL; remark: listed apart in the source
[27] = biological target: Recombinant, his tagged full length human frataxin protein (Abcam ab95502) (human) (UniProt Q16595); test: Simoa sandwich 2-step; capture Ab-2; frataxin 10000 pg/mL
[28] = biological target: Recombinant, his tagged full length human frataxin protein (Abcam ab95502) (human) (UniProt Q16595); test: Simoa sandwich 3-step; capture Ab-4; frataxin 10000 pg/mL
[29] = biological target: Recombinant, his tagged full length human frataxin protein (Abcam ab95502) (human) (UniProt Q16595); test: Simoa sandwich 2-step; capture Ab-1; frataxin 100 pg/mL
[30] = biological target: Recombinant, his tagged full length human frataxin protein (Abcam ab95502) (human) (UniProt Q16595); test: Simoa sandwich 3-step; capture Ab-1; frataxin 1000 pg/mL; remark: listed apart in the source
[31] = biological target: Recombinant, his tagged full length human frataxin protein (Abcam ab95502) (human) (UniProt Q16595); test: Simoa sandwich 3-step; capture Ab-1; remark: listed apart in the source
[32] = biological target: Recombinant, his tagged full length human frataxin protein (Abcam ab95502) (human) (UniProt Q16595); test: Simoa sandwich 2-step; capture Ab-2; frataxin 100 pg/mL
[33] = biological target: Recombinant, his tagged full length human frataxin protein (Abcam ab95502) (human) (UniProt Q16595); test: Simoa sandwich 3-step; capture Ab-2; frataxin 1000 pg/mL; remark: listed apart in the source
[34] = biological target: Recombinant, his tagged full length human frataxin protein (Abcam ab95502) (human) (UniProt Q16595); test: Simoa sandwich 3-step; capture Ab-1; frataxin 10000 pg/mL; remark: listed apart in the source
[35] = biological target: Recombinant, his tagged full length human frataxin protein (Abcam ab95502) (human) (UniProt Q16595); test: Simoa sandwich 3-step; capture Ab-2; frataxin 10000 pg/mL; remark: listed apart in the source
[36] = biological target: Recombinant, his tagged full length human frataxin protein (Abcam ab95502) (human) (UniProt Q16595); test: Simoa sandwich 3-step; capture Ab-2; remark: listed apart in the source

Sequence of UniProt Q16595 (Q16595 42-210): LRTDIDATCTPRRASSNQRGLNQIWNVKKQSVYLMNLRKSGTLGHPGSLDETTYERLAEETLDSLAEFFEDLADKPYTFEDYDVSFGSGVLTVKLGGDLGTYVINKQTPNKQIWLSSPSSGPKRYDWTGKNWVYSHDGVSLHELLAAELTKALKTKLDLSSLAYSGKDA

For “Ab-2, unconjugated mouse monoclonal to Human Frataxin FXN (LSBio LS-C755462) (antibody)”, the Ave AEB [1] was 0.0068 AEB, the S/B [1] was 5.41 and the Ave AEB [2] was 0.107 AEB. It also gave a S/B [2] of 90.8, an LOD [3] of 9.76 pg/mL and an Ave AEB [4] of 0.961 AEB. It also gave a S/B [4] of 9.84, an Ave AEB [5] of 2.42 AEB and a S/B [5] of 2.36. The Ave AEB [6] was 11.6 AEB, the S/B [6] was 11.3 and the Ave AEB [7] was 9.35 AEB. The S/B [7] was 95.7, the Ave AEB [8] was 13.6 AEB and the S/B [8] was 3.71. It also gave an LOD [9] of 5.71 pg/mL, an LOD [10] of 89.6 pg/mL and an LOD [11] of 18 pg/mL. The Ave AEB [12] was 4.73 AEB, the S/B [12] was 1.29 and the Ave AEB [13] was 0.0088 AEB. For the same substance, the S/B [13] was 7.44, the Ave AEB [14] was 0.101 AEB and the S/B [14] was 80.4. For the same substance, the LOD [15] was 4.43 pg/mL, the Ave AEB [16] was 1.05 AEB and the S/B [16] was 892. The Ave AEB [17] was 0.83 AEB, the S/B [17] was 659 and the Ave AEB [18] was 29.5 AEB. The S/B [18] was 302.
“Ab-5, rabbit polyclonal to recombinant full-length Human Frataxin (Abcam ab175402) (antibody)” was tested, and the Ave AEB [1] was 0.115 AEB, the S/B [1] was 7.3 and the Ave AEB [19] was 20.5 AEB. It also gave a S/B [19] of 78.8, an Ave AEB [2] of 0.998 AEB and a S/B [2] of 101. The Ave AEB [20] was 0.152 AEB, the S/B [20] was 6.28 and the LOD [21] was 1.27 pg/mL. The LOD [22] was 1.88 pg/mL, the LOD [3] was 4.62 pg/mL and the Ave AEB [23] was 29.3 AEB. It also gave a S/B [23] of 502, an Ave AEB [4] of 0.573 AEB and a S/B [4] of 5.82. For the same substance, the Ave AEB [24] was 12.4 AEB, the S/B [24] was 212 and the Ave AEB [25] was 13.1 AEB. It also gave a S/B [25] of 228, an Ave AEB [26] of 0.16 AEB and a S/B [26] of 7.69. The Ave AEB [27] was 28.4 AEB, the S/B [27] was 497 and the Ave AEB [28] was 23.7 AEB. The S/B [28] was 44.1, the Ave AEB [5] was 0.469 AEB and the S/B [5] was 1.8. The Ave AEB [6] was 2.64 AEB, the S/B [6] was 10.1 and the Ave AEB [29] was 1.61 AEB. It also gave a S/B [29] of 27.6, an Ave AEB [30] of 1.31 AEB and a S/B [30] of 53.9. It also gave an Ave AEB [7] of 5.53 AEB, a S/B [7] of 56.2 and an Ave AEB [8] of 3.95 AEB. It also gave a S/B [8] of 7.32, an LOD [9] of 2.95 pg/mL and an LOD [10] of 52.8 pg/mL. It also gave an LOD [11] of 33.6 pg/mL, an Ave AEB [12] of 0.814 AEB and a S/B [12] of 1.51. It also gave an Ave AEB [13] of 0.106 AEB, a S/B [13] of 10.8 and an Ave AEB [14] of 1.03 AEB. The S/B [14] was 65, the LOD [31] was 5.12 pg/mL and the LOD [15] was 7.44 pg/mL. The Ave AEB [32] was 1.49 AEB, the S/B [32] was 26.1 and the Ave AEB [33] was 1.59 AEB. The S/B [33] was 76.4, the Ave AEB [16] was 5.93 AEB and the S/B [16] was 602. For the same substance, the Ave AEB [34] was 8.37 AEB, the S/B [34] was 346 and the Ave AEB [17] was 5.41 AEB. The S/B [17] was 343, the Ave AEB [35] was 9.03 AEB and the S/B [35] was 434. For the same substance, the LOD [36] was 4.9 pg/mL, the Ave AEB [18] was 21.7 AEB and the S/B [18] was 220.
